Data as given in patent publication US20220144953A1 (published 2022).

Molecular target: Parent
Assay: antigen titration binding curve (Norm. RFU)

B1: Mouse (receptor)
chain: FKVTTPYSLYVCPEGQNATLTCRILGPVSKGHDVTIYKTWYLSSRGEVQMCKEHRPIRNFTLQHLQHHGSHLKANASHDQPQKHGLELASDHHGNFSITLRNVTPRDSGLYCCLVIELKNHHPEQRFYGSMELQVQAGKGSGSTCMASNEQDSDSITAA
Kd: 165 nM
